From publication PMC4928677

Target: GST-Cks2 (Xenopus laevis Cks2α, wild type) (Xenopus laevis) (UniProt Q91879)
Assay: pull-down

Chain of UniProt Q91879 (Q91879 whole entry): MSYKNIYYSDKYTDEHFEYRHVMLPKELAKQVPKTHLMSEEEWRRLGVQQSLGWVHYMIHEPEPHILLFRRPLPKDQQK

Substance	EC50 [µM]
Hypophosphorylated Wee1A (Flag-Wee1A-WT incubated with cyclin B1-Cdk1 without ATP) (from UniProt Q8AYK6 1-571) (natural protein)	0.526
Hyperphosphorylated Wee1A (Flag-Wee1A-WT phosphorylated in vitro by cyclin B1-Cdk1) (from UniProt Q8AYK6 1-571) (natural protein)	0.12
